Target: HLA-A*01:01/hβ2m complex (empty, peptide-free or peptide-receptive) (human)
Test: FP

B1: NRAS_(55-64) wild-type (Q61) peptide (peptide)
peptide: ILDTAGQEEY
- IC50: 278 nM

From PMC10713829 (2023)
